Test results as given in US11419948B2, “Functionalized microgels with fibrin binding elements” (Georgia Tech Research Corporation, priority 2013, dated 2022).

T1: fibrin clots (Homo sapiens, UniProt P02671+P02675+P02679)
T1 sequence (P02671 36-866 limits assumed): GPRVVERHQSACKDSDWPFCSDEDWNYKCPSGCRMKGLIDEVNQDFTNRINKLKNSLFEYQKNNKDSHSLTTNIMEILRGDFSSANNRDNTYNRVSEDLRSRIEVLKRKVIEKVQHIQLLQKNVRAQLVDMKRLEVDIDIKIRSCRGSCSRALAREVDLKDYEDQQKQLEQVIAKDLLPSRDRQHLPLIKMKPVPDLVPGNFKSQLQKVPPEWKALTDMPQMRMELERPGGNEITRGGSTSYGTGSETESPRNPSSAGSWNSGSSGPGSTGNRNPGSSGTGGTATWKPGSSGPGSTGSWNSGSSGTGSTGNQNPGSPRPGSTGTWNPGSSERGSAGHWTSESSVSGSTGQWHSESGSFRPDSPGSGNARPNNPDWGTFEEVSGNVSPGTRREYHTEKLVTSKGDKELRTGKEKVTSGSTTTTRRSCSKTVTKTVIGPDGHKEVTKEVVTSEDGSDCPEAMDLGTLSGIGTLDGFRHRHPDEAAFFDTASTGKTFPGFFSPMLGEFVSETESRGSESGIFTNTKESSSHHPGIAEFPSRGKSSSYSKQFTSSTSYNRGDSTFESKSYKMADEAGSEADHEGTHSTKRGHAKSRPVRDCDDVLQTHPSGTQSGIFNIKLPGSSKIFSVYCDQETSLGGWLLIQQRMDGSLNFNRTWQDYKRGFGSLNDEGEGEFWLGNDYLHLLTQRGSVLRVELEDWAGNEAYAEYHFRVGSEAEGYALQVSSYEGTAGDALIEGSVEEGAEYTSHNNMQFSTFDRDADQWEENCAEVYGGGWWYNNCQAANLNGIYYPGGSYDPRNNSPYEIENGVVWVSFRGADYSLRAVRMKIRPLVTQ
T1 sequence (P02675 45-491 limits assumed): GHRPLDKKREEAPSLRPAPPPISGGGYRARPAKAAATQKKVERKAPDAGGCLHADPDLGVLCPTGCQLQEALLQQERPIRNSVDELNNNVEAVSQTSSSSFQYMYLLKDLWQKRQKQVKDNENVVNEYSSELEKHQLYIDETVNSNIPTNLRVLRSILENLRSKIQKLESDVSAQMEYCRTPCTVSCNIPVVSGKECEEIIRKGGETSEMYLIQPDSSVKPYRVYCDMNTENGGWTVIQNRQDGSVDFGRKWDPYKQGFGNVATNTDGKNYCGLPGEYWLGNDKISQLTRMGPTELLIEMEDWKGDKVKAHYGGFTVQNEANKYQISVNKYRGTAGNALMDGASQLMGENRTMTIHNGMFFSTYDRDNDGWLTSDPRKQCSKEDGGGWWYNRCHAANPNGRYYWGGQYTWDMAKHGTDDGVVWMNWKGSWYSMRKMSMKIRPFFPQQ
T1 sequence (P02679 27-453): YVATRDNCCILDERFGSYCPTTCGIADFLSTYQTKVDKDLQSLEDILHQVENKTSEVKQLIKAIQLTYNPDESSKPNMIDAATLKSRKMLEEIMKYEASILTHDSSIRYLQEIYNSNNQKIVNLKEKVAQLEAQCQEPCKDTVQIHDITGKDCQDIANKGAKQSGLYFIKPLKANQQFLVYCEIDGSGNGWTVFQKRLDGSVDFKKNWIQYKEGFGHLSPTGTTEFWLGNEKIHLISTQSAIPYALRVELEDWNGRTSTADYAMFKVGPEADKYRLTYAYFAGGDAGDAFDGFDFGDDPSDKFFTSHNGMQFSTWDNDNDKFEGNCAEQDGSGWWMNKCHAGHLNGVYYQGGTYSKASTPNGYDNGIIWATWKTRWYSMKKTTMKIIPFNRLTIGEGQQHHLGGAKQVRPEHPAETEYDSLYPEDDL

B1: PLPs: ultra-low crosslinked pNIPAm-AAc microgels conjugated to fibrin-specific sdFv H6 (conjugate)
VH: QVQLLESGGGLVQPGGSLRLSCAASGDRFTHNDMGWVRQAPGKGLEWVSTIPTTDGSTYYADSVKGRFTISRDNSKSTLYLQMNSLRAEDTAVYYCATGYMWKAPAYVKYWGQGTLVTVSSAAAEQKLISEEDLNSAAHYTDIG
B2: H6: fibrin-specific human sdFv clone from phage biopanning, SEQ ID NO: 1 (protein)
VHH: B1 VH

Tests used:
fibrin clots [1] = biological target: T1, fibrin clots; assay: Clot polymerization/degradation assay (thrombin, tPA, plasminogen; turbidity); format: biochemical; conditions: versus control clots or clots with S11-ULC microgels
Experimental: Thrombin-initiated fibrin polymerization and degradation assays were used to evaluate clotting rates and persistence in the presence of H6 and S11 (control) ULC microgels at different microgel and fibrinogen concentrations. Competing polymerization and degradation reactions were created with a 96 well plate, and a final volume of 100 μL per well. Two solutions were made, a fibrinogen-microgel solution that was loaded initially, and a thrombin-tPA (tissue Plasminogen Activator)-plasminogen solution that was added in a 1:1 volume ratio. Final concentrations in each well were 2 mg/mL microgel and 2 mg/mL of fibrinogen, 5 mMol Ca^+, 0.25 U/mL of human thrombin (Enzyme Research Laboratories, Inc., South Bend, Ind.), 0.29 μg/mL of tissue Plasminogen Activator(tPA), and 10.8 μg/mL of Plasminogen. The remainder of the volume in the thrombin/tPA/plasminogen solution was made up of 25 mM Hepes, 150 mM NaCl buffer. Turbidity curves were be generated from absorbance measurements (SpectraMax M2 Microplate Reader, Molecular Devices, Sunnyvale, Calif.) at 350 nm, with reads taken every thirty seconds.

fibrin clots [2] = biological target: T1, fibrin clots; assay: Clot microstructure by confocal microscopy; format: biochemical; parameters: from tissue; host or cells: blood plasma (platelet-rich or platelet-poor); conditions: clots formed in presence of particles, compared to control (fibrin-only) clots
Source text: FIGS. 4A and 4B are maximum-intensity confocal images of fibrin clots formed from platelet-rich plasma (PRP) or platelet-poor plasma (PPP) in the absence or presence of PLPs or S11-ULCs. Fibrin, grey; microgels/platelets, circled.
To allow appreciation of the network structure in the presence of saturation, 0.33× exposures and equivalent exposures are shown on the left- and right-hand sides, respectively, of the images for PRP and PLP clots. […] FIG. 4E is a graph showing the calculated spread area of PLPs, natural platelets, S11-ULCs and H6-PS particles within fibrin matrices. (**p<0.01, ***p<0.001).
To further characterize the nature of PLP-fibrin interactions, clot microstructure was analyzed via confocal microscopy by forming clots in the presence or absence of scFv-ULC microgels. […] These clots were highly heterogeneous, containing regions of dense fibrin observed in conjugation with PLPs (FIG. 4A) with the dense features becoming more pronounced over time. These features were very similar to those observed from clots formed in platelet-rich plasma, although occurring on a different time scale.

human plasma components = assay: Quantitative human plasma binding ELISA; conditions: five 10-fold plasma dilutions
Experimental: The quantitative assay involved coating a 96-well high-binding plate with five different 10-fold plasma dilutions. H6, S11, or a positive-control anti-fibrinogen antibody were incubated in these wells to allow for binding with plasma components to occur. All wells were set-up in triplicate. After washing away unbound nanobody or antibody and treating with appropriate secondary antibodies and ELISA reagents, the amount of H6, S11 or anti-fibrinogen antibody remaining in each well was measured spectrophotomerically in a plate reader. All readings were normalized to wells in which PBS was incubated with plasma.

Molecule | clot degradation (fibrin clots [1]) | clot structure (fibrin clots [2]) | binding to plasma-coated plate (human plasma components)
B1 | more resistant to degradation | significantly altered clot structure | 
B2 |  |  | negligible binding
